Columns and labels:
Format in all cases: biochemical
Set-up in all cases: key to Activity of mutant relative to wild-type Gaussia luciferase without the signal peptide: ratio of mutant luminescence intensity to wild-type Gaussia luciferase
[1] = Luminescence activity assay of purified Gaussia luciferase mutants on coelenterazine; conditions: Substrate CTZ (Table 16)
In short: (§1)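 Readout: luminescence intensity, as ratio to signal-peptide-free wild-type enzyme. Enzyme 1 μg/mL, substrate 100 μM stock, 10 μL + 90 μL; buffer 50 mM Tris-HCl pH 8.0, 100 mM NaCl, 0.1% Tween-20.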

[2] = Luminescence activity assay of purified Gaussia luciferase mutants on fluoro-coelenterazine; conditions: Substrate f-CTZ (Table 16)
In short: as §1

[3] = Luminescence activity assay of purified Gaussia luciferase mutants on coelenterazine derivative ZS2; conditions: Substrate ZS2 (Table 16)
In short: as §1

Molecule	Activity of mutant relative to wild-type Gaussia luciferase without the signal peptide [1]	Activity of mutant relative to wild-type Gaussia luciferase without the signal peptide [2]	Activity of mutant relative to wild-type Gaussia luciferase without the signal peptide [3]
Q152H S170D G174S K178T A182L: Gaussia luciferase mutant (protein, SIGNAL (1)..(17), Gaussia luciferase mutant) MGVKVLFALICIAVAEAKPTENNEDFNIVAVASNFATTDLDADRGKLPGKKLPLEVLKEMEANARKAGCTRGCLICLSHIKCTPKMKKFIPGRCHTYEGDKESAQGGIGEAIVDIPEIPGFKDLEPMEQFIAQVDLCVDCTTGCLKGLANVHCSDLLKKWLPQRCATFADKIQSQVDTIKGLGGD	4.938	2.069	2.672
S103I A104G E110G L124M V138D: Gaussia luciferase mutant (protein, SIGNAL (1)..(17), Gaussia luciferase mutant) MGVKVLFALICIAVAEAKPTENNEDFNIVAVASNFATTDLDADRGKLPGKKLPLEVLKEMEANARKAGCTRGCLICLSHIKCTPKMKKFIPGRCHTYEGDKEIGQGGIGGAIVDIPEIPGFKDMEPMEQFIAQVDLCDDCTTGCLKGLANVQCSDLLKKWLPQRCATFASKIQGQVDKIKGAGGD	1.165	1.701	1.337
Q152H S170D Q175E A182Y: Gaussia luciferase mutant (protein, SIGNAL (1)..(17), Gaussia luciferase mutant) MGVKVLFALICIAVAEAKPTENNEDFNIVAVASNFATTDLDADRGKLPGKKLPLEVLKEMEANARKAGCTRGCLICLSHIKCTPKMKKFIPGRCHTYEGDKESAQGGIGEAIVDIPEIPGFKDLEPMEQFIAQVDLCVDCTTGCLKGLANVHCSDLLKKWLPQRCATFADKIQGEVDKIKGYGGD	0.615	0.583	0.723
Q152K Q163S T167G S170V G174K Q175E K180: Gaussia luciferase mutant (protein) MGVKVLFALICIAVAEAKPTENNEDFNIVAVASNFATTDLDADRGKLPGKKLPLEVLKEMEANARKAGCTRGCLICLSHIKCTPKMKKFIPGRCHTYEGDKESAQGGIGEAIVDIPEIPGFKDLEPMEQFIAQVDLCVDCTTGCLKGLANVKCSDLLKKWLPSRCAGFAVKIQKEVDKIKGAGGD	0.011	0.512	0.136
Q152K Q163T S170N G174N K178S A182Y G183A: Gaussia luciferase mutant (protein, SIGNAL (1)..(17), Gaussia luciferase mutant) MGVKVLFALICIAVAEAKPTENNEDFNIVAVASNFATTDLDADRGKLPGKKLPLEVLKEMEANARKAGCTRGCLICLSHIKCTPKMKKFIPGRCHTYEGDKESAQGGIGEAIVDIPEIPGFKDLEPMEQFIAQVDLCVDCTTGCLKGLANVKCSDLLKKWLPTRCATFANKIQNQVDSIKGYAGD	0.194	0.299	0.026
Q152R Q163S T167G S170T G174K K178S A182M G183A: Gaussia luciferase mutant (protein, SIGNAL (1)..(17), Gaussia luciferase mutant) MGVKVLFALICIAVAEAKPTENNEDFNIVAVASNFATTDLDADRGKLPGKKLPLEVLKEMEANARKAGCTRGCLICLSHIKCTPKMKKFIPGRCHTYEGDKESAQGGIGEAIVDIPEIPGFKDLEPMEQFIAQVDLCVDCTTGCLKGLANVRCSDLLKKWLPSRCAGFATKIQKQVDSIKGMAGD	1.171	1.864	2.367
E102K S103T A104G E110G V138D I172: Gaussia luciferase mutant (protein) MGVKVLFALICIAVAEAKPTENNEDFNIVAVASNFATTDLDADRGKLPGKKLPLEVLKEMEANARKAGCTRGCLICLSHIKCTPKMKKFIPGRCHTYEGDKKTGQGGIGGAIVDIPEIPGFKDLEPMEQFIAQVDLCDDCTTGCLKGLANVQCSDLLKKWLPQRCATFASKIQGQVDKIKGAGGD	0.622	2.719	0.550
Q152R T167G G174S Q175E K178N A182Y G183A: Gaussia luciferase mutant (protein, SIGNAL (1)..(17), Gaussia luciferase mutant) MGVKVLFALICIAVAEAKPTENNEDFNIVAVASNFATTDLDADRGKLPGKKLPLEVLKEMEANARKAGCTRGCLICLSHIKCTPKMKKFIPGRCHTYEGDKESAQGGIGEAIVDIPEIPGFKDLEPMEQFIAQVDLCVDCTTGCLKGLANVRCSDLLKKWLPQRCAGFASKIQSEVDNIKGYAGD	0.703	0.404	0.481
Q163T T167S S170V G174N K178N A182Y G183A: Gaussia luciferase mutant (protein, SIGNAL (1)..(17), Gaussia luciferase mutant) MGVKVLFALICIAVAEAKPTENNEDFNIVAVASNFATTDLDADRGKLPGKKLPLEVLKEMEANARKAGCTRGCLICLSHIKCTPKMKKFIPGRCHTYEGDKESAQGGIGEAIVDIPEIPGFKDLEPMEQFIAQVDLCVDCTTGCLKGLANVQCSDLLKKWLPTRCASFAVKIQNQVDNIKGYAGD	0.170	0.135	0.138
Q152K Q163S T167S S170N G174N K178S A182Y G183A: Gaussia luciferase mutant (protein, SIGNAL (1)..(17), Gaussia luciferase mutant) MGVKVLFALICIAVAEAKPTENNEDFNIVAVASNFATTDLDADRGKLPGKKLPLEVLKEMEANARKAGCTRGCLICLSHIKCTPKMKKFIPGRCHTYEGDKESAQGGIGEAIVDIPEIPGFKDLEPMEQFIAQVDLCVDCTTGCLKGLANVKCSDLLKKWLPSRCASFANKIQNQVDSIKGYAGD	0.906	1.175	0.819
Q152R Q163S T167S S170D G174K Q175E K178N A182M: Gaussia luciferase mutant (protein, SIGNAL (1)..(17), Gaussia luciferase mutant) MGVKVLFALICIAVAEAKPTENNEDFNIVAVASNFATTDLDADRGKLPGKKLPLEVLKEMEANARKAGCTRGCLICLSHIKCTPKMKKFIPGRCHTYEGDKESAQGGIGEAIVDIPEIPGFKDLEPMEQFIAQVDLCVDCTTGCLKGLANVRCSDLLKKWLPSRCASFADKIQKEVDNIKGMGGD	4.609	1.020	3.139
F26C N27D A30D A32V S33R A36T: Gaussia luciferase mutant (protein, SIGNAL (1)..(17), Gaussia luciferase mutant) MGVKVLFALICIAVAEAKPTENNEDCDIVDVVRNFTTTDLDADRGKLPGKKLPLEVLKEMEANARKAGCTRGCLICLSHIKCTPKMKKFIPGRCHTYEGDKESAQGGIGEAIVDIPEIPGFKDLEPMEQFIAQVDLCVDCTTGCLKGLANVQCSDLLKKWLPQRCATFASKIQGQVDKIKGAGGD	0.126	0.130	0.166
F26C N27D A30V V31L A32G S33I A36V T37M L40G: Gaussia luciferase mutant (protein, SIGNAL (1)..(17), Gaussia luciferase mutant) MGVKVLFALICIAVAEAKPTENNEDCDIVVLGINFVMTDGDADRGKLPGKKLPLEVLKEMEANARKAGCTRGCLICLSHIKCTPKMKKFIPGRCHTYEGDKESAQGGIGEAIVDIPEIPGFKDLEPMEQFIAQVDLCVDCTTGCLKGLANVQCSDLLKKWLPQRCATFASKIQGQVDKIKGAGGD	0.054	0.065	0.086
F26C N27D V29L A32V A36I T37A L40I: Gaussia luciferase mutant (protein, SIGNAL (1)..(17), Gaussia luciferase mutant) MGVKVLFALICIAVAEAKPTENNEDCDILAVVSNFIATDIDADRGKLPGKKLPLEVLKEMEANARKAGCTRGCLICLSHIKCTPKMKKFIPGRCHTYEGDKESAQGGIGEAIVDIPEIPGFKDLEPMEQFIAQVDLCVDCTTGCLKGLANVQCSDLLKKWLPQRCATFASKIQGQVDKIKGAGGD	0.203	0.141	0.166

— patent US20250066745A1, “MUTANTS AND USE THEREOF” (BGI SHENZHEN, priority 2021, published 2025)
